Measured values: paper PMC4613514

Biological target: Keap1–mCherry (Kelch-like ECH associated protein 1 fused to mCherry) (UniProt Q9Z2X8)
Assay: FRET or BRET

Sequence of UniProt Q9Z2X8 (Q9Z2X8 whole entry, the tested form may be a part): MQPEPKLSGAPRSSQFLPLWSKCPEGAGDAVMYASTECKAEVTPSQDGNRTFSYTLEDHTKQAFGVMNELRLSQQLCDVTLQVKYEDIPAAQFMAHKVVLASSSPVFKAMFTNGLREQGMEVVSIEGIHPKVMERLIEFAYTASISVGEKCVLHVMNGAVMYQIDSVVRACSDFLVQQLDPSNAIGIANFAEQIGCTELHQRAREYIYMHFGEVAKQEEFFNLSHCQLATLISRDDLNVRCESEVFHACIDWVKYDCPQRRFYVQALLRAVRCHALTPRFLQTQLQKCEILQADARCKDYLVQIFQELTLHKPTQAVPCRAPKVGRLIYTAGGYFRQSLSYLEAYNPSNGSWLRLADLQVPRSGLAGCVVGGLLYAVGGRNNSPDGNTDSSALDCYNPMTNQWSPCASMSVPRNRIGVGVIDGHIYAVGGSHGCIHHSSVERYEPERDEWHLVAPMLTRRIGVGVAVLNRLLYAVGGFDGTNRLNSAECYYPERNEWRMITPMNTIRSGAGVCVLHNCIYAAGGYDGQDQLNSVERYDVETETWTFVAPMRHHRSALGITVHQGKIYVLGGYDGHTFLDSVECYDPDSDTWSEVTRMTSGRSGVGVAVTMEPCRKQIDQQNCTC

| E-FRET (major peak) | Substance |
| --- | --- |
| 21% | EGFP–Nrf2 double ETGE (from UniProt Q60795 1-597) (natural protein) |
| 13% | EGFP–Nrf2ΔDLG (from UniProt Q60795 1-597) (natural protein) |
